# Results from publication PMC4374754 (2015).
# T1: DNA polymerase V (UmuD′2C) (E. coli, UniProt P04152 1-422; P0AG11 25-139)
# T1 chain 1: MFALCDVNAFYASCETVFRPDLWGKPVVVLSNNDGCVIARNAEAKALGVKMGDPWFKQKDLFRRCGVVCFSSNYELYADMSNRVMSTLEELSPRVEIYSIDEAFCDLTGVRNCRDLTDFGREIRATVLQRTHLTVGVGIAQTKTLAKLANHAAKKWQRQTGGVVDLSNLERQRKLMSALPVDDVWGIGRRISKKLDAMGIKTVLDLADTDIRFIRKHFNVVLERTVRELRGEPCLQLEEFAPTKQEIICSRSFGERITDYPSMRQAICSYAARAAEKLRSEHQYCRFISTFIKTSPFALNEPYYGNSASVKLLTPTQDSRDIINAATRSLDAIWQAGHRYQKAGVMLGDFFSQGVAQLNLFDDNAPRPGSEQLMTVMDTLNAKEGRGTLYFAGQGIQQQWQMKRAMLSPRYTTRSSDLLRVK
# T1 chain 2: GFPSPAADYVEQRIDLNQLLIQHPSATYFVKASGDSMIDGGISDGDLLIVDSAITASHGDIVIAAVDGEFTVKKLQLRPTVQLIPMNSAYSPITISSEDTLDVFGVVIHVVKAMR
# Target: T1, DNA polymerase V (UmuD′2C)
# Test: FP; apparent Kd
row,Binder,Kd
1,"RecA D112R, fluorescein-labelled (natural protein, fluorescein (Fluorescein-EX Protein Labeling Kit); labelled residues not stated) AIDENKQKALAAALGQIEKQFGKGSIMRLGEDRSMDVETISTGSLSLDIALGAGGLPMGRIVEIYGPESSGKTTLTLQVIAAAQREGKTCAFIDAEHALDPIYARKLGVDIRNLLCSQPDTGEQALEICDALARSGAVDVIVVDSVAALTPKAEIEGEIGDSHMGLAARMMSQAMRKLAGNLKQSNTLLIFINQIRMKIGVMFGNPETTTGGNALKFYASVRLDIRRIGAVKEGENVVGSETRVKVVKNKIAAPFKQAEFQILYGEGINFYGELVDLGVKEKLIEKAGAWYSYKGEKIGQGKANATAWLKDNPETAKEIEKKVRELLLSNPNSTPDFSVDDSEGVAETNEDF",297 nM
2,"wild-type E. coli RecA protein, fluorescein-labelled (natural protein, fluorescein (Fluorescein-EX Protein Labeling Kit); labelled residues not stated) MAIDENKQKALAAALGQIEKQFGKGSIMRLGEDRSMDVETISTGSLSLDIALGAGGLPMGRIVEIYGPESSGKTTLTLQVIAAAQREGKTCAFIDAEHALDPIYARKLGVDIDNLLCSQPDTGEQALEICDALARSGAVDVIVVDSVAALTPKAEIEGEIGDSHMGLAARMMSQAMRKLAGNLKQSNTLLIFINQIRMKIGVMFGNPETTTGGNALKFYASVRLDIRRIGAVKEGENVVGSETRVKVVKNKIAAPFKQAEFQILYGEGINFYGELVDLGVKEKLIEKAGAWYSYKGEKIGQGKANATAWLKDNPETAKEIEKKVRELLLSNPNSTPDFSVDDSEGVAETNEDF",239 nM
